Key:
Assay in all cases: cell-based or functional assay
[1] = target: mouse melanocortin-1 receptor (mouse) (UniProt Q01727)
[2] = target: mouse melanocortin-3 receptor (mouse) (UniProt P33033)
[3] = target: mouse melanocortin-4 receptor (mouse) (UniProt P56450)
[4] = target: mouse melanocortin-5 receptor (mouse) (UniProt P41149)
mouse melanocortin-5 receptor (mouse), sequence (P41149 whole entry): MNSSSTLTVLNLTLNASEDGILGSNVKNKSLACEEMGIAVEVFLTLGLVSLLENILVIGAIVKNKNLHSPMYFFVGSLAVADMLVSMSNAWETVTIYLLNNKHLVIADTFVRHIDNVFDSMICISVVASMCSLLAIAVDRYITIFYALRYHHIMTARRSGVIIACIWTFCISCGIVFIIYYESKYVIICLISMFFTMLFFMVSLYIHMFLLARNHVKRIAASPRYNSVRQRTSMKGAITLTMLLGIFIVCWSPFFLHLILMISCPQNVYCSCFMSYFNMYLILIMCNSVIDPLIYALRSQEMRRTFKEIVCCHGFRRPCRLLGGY

mouse melanocortin-3 receptor (mouse), sequence (P33033 whole entry): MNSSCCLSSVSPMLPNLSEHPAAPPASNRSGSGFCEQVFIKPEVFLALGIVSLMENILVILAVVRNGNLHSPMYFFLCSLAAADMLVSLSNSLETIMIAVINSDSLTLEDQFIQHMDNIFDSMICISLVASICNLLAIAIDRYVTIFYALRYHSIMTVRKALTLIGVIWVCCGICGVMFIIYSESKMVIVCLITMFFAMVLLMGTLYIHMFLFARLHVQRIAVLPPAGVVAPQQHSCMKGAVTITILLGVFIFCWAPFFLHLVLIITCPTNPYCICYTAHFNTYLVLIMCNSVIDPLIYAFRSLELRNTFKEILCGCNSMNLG
mouse melanocortin-1 receptor (mouse), sequence (Q01727 whole entry): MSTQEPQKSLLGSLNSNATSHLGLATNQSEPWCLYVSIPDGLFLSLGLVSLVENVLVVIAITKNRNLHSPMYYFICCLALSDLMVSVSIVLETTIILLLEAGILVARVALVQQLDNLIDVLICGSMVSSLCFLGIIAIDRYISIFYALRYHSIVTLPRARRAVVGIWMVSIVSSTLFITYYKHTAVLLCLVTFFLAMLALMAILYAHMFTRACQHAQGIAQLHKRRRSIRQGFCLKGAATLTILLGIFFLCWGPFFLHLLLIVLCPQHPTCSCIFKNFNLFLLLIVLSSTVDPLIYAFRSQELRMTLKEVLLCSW
mouse melanocortin-4 receptor (mouse), sequence (P56450 whole entry): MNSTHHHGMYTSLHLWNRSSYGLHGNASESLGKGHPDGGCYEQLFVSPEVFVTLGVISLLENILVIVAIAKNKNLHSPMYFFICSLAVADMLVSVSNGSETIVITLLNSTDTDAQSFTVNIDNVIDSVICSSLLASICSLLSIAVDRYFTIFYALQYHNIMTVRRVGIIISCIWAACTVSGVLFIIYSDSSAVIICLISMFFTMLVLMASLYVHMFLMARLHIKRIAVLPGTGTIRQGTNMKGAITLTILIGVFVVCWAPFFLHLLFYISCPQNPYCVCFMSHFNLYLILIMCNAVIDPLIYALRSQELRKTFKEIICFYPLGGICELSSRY

Row | EC50 (agonist) [1] | EC50 (agonist) [2] | pA2 (antagonist) [3] | EC50 (agonist) [4] | Substance
1 | 5120 nM | > 100000 nM | 6.8 | > 100000 nM | hAGRP(109-118) decapeptide (from UniProt O00253 109-118)
2 | – | 0.098 nM | – | 0.071 nM | NDP-MSH (peptide)
3 | 0.02 nM | – | – | – | MTII (peptide)
